Here are results for two molecules from patent publication US20190315845A1 (ANNEXON, published 2019).

Read-outs that look alike come from different tables or passages of the source.

Usually Kd stands for the free concentration of one partner at which half of the binding sites on the other are occupied at equilibrium, for simple one-to-one binding. A higher Kd goes with weaker binding. What is called koff is the first-order rate constant of dissociation. Read a low koff as a long-lived complex. By kon is commonly meant the second-order rate constant of association.

Experiment [1] concerns the target T1, mouse C1q (mouse, UniProt P98086 23-245; P14106 26-253; Q02105 30-246).
T1 construct: Purified mouse C1q protein; also called mC1q
Description: competition ELISA on plate-bound mouse C1q against biotinylated chimeric M1 antibody (0.03 µg/ml); bound biotin-chimeric M1 read as OD450. As for the experimental part: (§1) The binding of humanized M1 variants to mouse C1q was analyzed by competition ELISA on four selected antibodies, VH1/Vκ1, VH3/Vκ1, VH3/Vκ4 and VH4/Vκ3. An irrelevant IgG4 (S241P L248E) antibody was also included as a binding control. A three-fold dilution series of test antibody (100 μg/ml to 0.046 μg/ml) was premixed with a constant concentration of biotinylated chimeric M1 antibody (0.03 μg/ml, final concentration) before incubating for 1 hour at 37° C. with shaking on plates pre-coated with mouse C1q at 5.0 μg/ml. The binding of chimeric M1 antibody was detected with streptavidin-peroxidase conjugate (Sigma-Aldrich cat. no. S5512) and TMB substrate (Thermo Scientific cat. no. 34029). The reaction was stopped with 1M HCl, absorbance read at 450 nm on a Dynex Technologies MRX TC II plate reader and the binding curves plotted.
(§2) The binding curves were used to calculate IC₅₀ values for each antibody normalized to the IC₅₀ of chimeric M1 (Table 2).
On the technique in general: In an ELISA, binding on a coated surface is turned into a signal by an enzyme label.

Experiment [2] addresses T2, human C1q (human, UniProt P02745 23-245; P02746 28-253; P02747 29-245).
T2 construct: Purified human C1q protein (plate-coated in ELISA, ligand or analyte in SPR, in human serum in CH50); also called hC1q; complement factor C1q
Put plainly: SPR Biacore T200, heterogeneous ligand model, KD1; hC1q immobilised (ligand), IgG analyte. On the technique in general: Surface plasmon resonance follows binding to a sensor surface in real time, without labels.

Experiment [3] has as its target T2, human C1q. Put plainly: competition ELISA on plate-bound human C1q against biotinylated mouse M1 antibody (0.02 µg/ml); bound biotin-M1 read as OD450. An excerpt:
(§3) FIG. 4A, FIG. 4B, FIG. 4C, and FIG. 4D depicts competition ELISA assays for human C1q. A dilution series of purified humanized anti-C1q antibodies were competed against a fixed concentration of biotinylated monoclonal antibody M1 for binding to human C1q. Bound biotinylated M1 antibody was detected using streptavidin-peroxidase conjugate and TMB substrate. FIG. 4A depicts the results with the humanized antibodies VH1/Vκ1, VH1/Vκ2, and VH1/Vκ3. FIG. 4B depicts the results with the humanized antibodies VH1/Vκ4, VH2/Vκ1, VH2/Vκ2, VH2/Vκ3, and VH2/Vκ4. FIG. 4C depicts the results with the humanized antibodies VH3/Vκ1, VH3/Vκ2, VH3/Vκ3, and VH3/Vκ4. FIG. 4D depicts the results with the humanized antibodies VH4/Vκ1, VH4/Vκ2, […], and VH4/Vκ4.
(§4) The binding of humanized M1 variants to human C1q was analyzed by competition ELISA. A three-fold dilution series of test antibody (5 μg/ml to 0.002 μg/ml) was premixed with a constant concentration of biotinylated mouse M1 antibody (0.02 μg/ml, final concentration) before incubating for 1 hour at 37° C. with shaking on plates pre-coated with human C1q at 1.0 μg/ml. The binding of mouse M1 antibody was detected with streptavidin-peroxidase conjugate (Sigma-Aldrich cat. no. 55512) and TMB (3,3′,5,5′-tetramethylbenzidine) substrate (Thermo Scientific cat. no. 34029). The reaction was stopped with 1M HCl, absorbance read at 450 nm on a Dynex Technologies MRX TC II plate reader and the binding curves plotted.

Experiment [4] deals with T2, human C1q. Description: SPR Biacore T200, 1:1 model; IgG immobilised (ligand), hC1q analyte; analysis 2.
In experiment [5] the target is T2, human C1q. Description: cell-based or functional assay.
The target of experiment [6] is rat C1q (rat, UniProt P31720 23-245; P31721 26-253; P31722 29-245). Put plainly: cell-based or functional assay.
For experiment [7], the target named is T2, human C1q. Put plainly: SPR Biacore T200, heterogeneous ligand model, ka2; hC1q immobilised (ligand), IgG analyte.
In experiment [8] the target is T2, human C1q. Description: SPR Biacore T200, heterogeneous ligand model, kd1; hC1q immobilised (ligand), IgG analyte.
In experiment [9] the target is T2, human C1q. Put plainly: SPR Biacore T200, 1:1 model; IgG immobilised (ligand), hC1q analyte; mean of 2 analyses.
In experiment [10] the target is T2, human C1q. Put plainly: SPR Biacore T200, heterogeneous ligand model, ka1; hC1q immobilised (ligand), IgG analyte.
In experiment [11] the target is T2, human C1q. Put plainly: SPR Biacore T200, heterogeneous ligand model, kd2; hC1q immobilised (ligand), IgG analyte.
Experiment [12] has as its target T2, human C1q. Description: SPR Biacore T200, 1:1 model, single cycle kinetics; hC1q immobilised (ligand), IgG analyte.
Experiment [13] concerns the target T2, human C1q. Description: SPR Biacore T200, heterogeneous ligand model, KD2; hC1q immobilised (ligand), IgG analyte.
The target in experiment [14] is T2, human C1q. Put plainly: competition ELISA, plate-coated human C1q; competitor biotinylated mouse M1 (0.02 µg/ml); IC50 normalised to chimeric M1. As for the experimental part:
as §4
(§5) The binding curves were used to calculate IC₅₀ values (concentration of test antibody that inhibits labelled competitor binding by 50%) for each antibody normalized to the IC₅₀ of chimeric M1 and antibody yields from NS0 transfectants were also compared (Table 1).

For experiment [15], the target named is T1, mouse C1q. Description: competition ELISA, plate-coated mouse C1q; competitor biotinylated chimeric M1 (0.03 µg/ml); IC50 normalised to chimeric M1. As for the experimental part:
as §1, §2

The target of experiment [16] is T2, human C1q. Put plainly: SPR Biacore T200, 1:1 model; IgG immobilised (ligand), hC1q analyte; analysis 1.
Experiment [17] concerns the target T2, human C1q. Description: competition ELISA on plate-bound human C1q against biotinylated mouse M1 antibody (0.02 µg/ml); bound biotin-M1 read as OD450.
Excerpt: as §3, §4
The source holds these as a separate data set.

Experiment [18] has as its target T2, human C1q. The experiment is described as above.
Excerpt: as §3, §4
The source holds these as a separate data set.

The target of experiment [19] is T1, mouse C1q. Description: competition ELISA, plate-coated mouse C1q; competitor biotinylated chimeric M1 (0.03 µg/ml); IC50 normalised to chimeric M1 (reference itself). As for the experimental part:
as §1, §2

The target in experiment [20] is T2, human C1q. Put plainly: competition ELISA on plate-bound human C1q against biotinylated mouse M1 antibody (0.02 µg/ml); bound biotin-M1 read as OD450.
Excerpt: as §3, §4
This is another data set of the same source.

Experiment [21] has as its target T2, human C1q. Put plainly: competition ELISA, plate-coated human C1q; competitor biotinylated mouse M1 (0.02 µg/ml); IC50 normalised to chimeric M1 (reference itself). As for the experimental part: as §4, §5

T2 sequence (P02745 23-245 limits assumed, chain 1 of 3): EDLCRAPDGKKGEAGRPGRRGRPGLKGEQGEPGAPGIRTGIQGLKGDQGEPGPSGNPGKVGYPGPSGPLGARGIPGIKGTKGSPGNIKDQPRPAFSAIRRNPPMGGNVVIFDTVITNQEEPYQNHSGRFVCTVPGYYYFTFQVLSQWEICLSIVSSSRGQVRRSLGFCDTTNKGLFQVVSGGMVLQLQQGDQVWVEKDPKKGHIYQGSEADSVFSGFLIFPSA
T2 sequence (P02746 28-253 limits assumed, chain 2 of 3): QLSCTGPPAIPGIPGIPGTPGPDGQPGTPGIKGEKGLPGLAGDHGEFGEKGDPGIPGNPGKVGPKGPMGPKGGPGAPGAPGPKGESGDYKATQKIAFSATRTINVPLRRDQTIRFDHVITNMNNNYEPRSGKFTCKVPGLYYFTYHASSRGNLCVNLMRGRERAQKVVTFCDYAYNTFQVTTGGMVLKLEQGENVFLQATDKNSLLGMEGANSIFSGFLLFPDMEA
T2 sequence (P02747 29-245 limits assumed, chain 3 of 3): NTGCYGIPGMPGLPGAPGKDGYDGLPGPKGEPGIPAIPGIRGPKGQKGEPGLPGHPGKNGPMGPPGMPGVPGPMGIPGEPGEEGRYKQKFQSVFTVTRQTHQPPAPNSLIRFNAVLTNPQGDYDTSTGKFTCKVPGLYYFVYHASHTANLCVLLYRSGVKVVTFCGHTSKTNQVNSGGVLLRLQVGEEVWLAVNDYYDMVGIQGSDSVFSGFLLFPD
T1 sequence (P98086 23-245 limits assumed, chain 1 of 3): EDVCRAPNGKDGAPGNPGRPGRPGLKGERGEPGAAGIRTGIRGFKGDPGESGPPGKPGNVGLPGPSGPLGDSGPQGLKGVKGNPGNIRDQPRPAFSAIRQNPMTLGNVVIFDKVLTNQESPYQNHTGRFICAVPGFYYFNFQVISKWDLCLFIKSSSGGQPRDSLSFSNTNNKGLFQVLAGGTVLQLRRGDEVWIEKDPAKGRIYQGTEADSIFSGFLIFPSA
T1 sequence (P14106 26-253 limits assumed, chain 2 of 3): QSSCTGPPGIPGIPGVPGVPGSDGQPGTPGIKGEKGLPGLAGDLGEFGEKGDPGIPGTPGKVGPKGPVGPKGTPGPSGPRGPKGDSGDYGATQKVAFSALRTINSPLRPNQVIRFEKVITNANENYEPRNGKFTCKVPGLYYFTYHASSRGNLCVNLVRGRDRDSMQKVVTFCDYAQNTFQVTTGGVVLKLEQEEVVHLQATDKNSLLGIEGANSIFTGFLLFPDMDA
T1 sequence (Q02105 30-246 limits assumed, chain 3 of 3): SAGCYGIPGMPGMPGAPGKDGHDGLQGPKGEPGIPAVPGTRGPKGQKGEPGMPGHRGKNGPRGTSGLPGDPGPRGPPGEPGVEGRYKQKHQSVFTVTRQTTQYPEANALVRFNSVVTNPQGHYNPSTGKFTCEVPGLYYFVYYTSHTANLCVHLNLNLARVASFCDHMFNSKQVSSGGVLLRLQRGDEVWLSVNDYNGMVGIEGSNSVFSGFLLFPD
rat C1q, sequence (P31720 23-245 limits assumed, chain 1 of 3): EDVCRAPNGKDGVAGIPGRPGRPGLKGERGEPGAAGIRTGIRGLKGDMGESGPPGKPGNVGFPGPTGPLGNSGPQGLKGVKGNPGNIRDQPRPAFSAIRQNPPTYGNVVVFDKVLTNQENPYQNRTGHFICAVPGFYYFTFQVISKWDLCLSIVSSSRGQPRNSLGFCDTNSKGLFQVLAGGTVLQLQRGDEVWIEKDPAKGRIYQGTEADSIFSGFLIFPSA
rat C1q, sequence (P31721 26-253 limits assumed, chain 2 of 3): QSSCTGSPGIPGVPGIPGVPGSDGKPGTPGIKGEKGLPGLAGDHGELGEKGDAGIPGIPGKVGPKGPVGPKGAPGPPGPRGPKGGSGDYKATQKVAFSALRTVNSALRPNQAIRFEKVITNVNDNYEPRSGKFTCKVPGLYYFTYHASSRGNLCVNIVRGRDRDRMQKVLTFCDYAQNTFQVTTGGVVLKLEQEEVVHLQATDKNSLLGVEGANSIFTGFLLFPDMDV
rat C1q, sequence (P31722 29-245 limits assumed, chain 3 of 3): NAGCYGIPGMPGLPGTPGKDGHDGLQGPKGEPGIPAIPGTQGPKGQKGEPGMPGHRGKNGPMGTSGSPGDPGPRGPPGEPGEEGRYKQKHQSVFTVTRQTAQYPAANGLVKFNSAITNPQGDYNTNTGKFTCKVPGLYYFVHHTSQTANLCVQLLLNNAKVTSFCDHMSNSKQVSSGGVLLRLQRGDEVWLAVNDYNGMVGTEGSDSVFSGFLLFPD

B1: humanized anti-C1q antibody VH3/Vκ3 (full-length IgG) (antibody)
heavy: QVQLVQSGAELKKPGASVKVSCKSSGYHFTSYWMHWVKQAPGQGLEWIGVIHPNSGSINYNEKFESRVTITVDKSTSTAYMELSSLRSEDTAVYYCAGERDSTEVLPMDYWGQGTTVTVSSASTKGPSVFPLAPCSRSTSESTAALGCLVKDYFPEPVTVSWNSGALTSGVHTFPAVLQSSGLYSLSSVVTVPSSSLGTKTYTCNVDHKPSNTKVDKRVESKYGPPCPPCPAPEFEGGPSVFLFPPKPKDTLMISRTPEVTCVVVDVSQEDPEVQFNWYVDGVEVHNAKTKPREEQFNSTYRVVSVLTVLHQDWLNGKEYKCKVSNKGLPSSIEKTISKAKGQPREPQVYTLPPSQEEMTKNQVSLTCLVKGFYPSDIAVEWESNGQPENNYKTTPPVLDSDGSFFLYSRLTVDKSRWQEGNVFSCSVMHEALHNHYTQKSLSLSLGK
light: DVQITQSPSSLSASLGERATINCRASKSINKYLAWYQQKPGKAPKLLIYSGSTLQSGIPARFSGSGSGTDFTLTISSLEPEDFAMYYCQQHNEYPLTFGQGTKLEIK
notes: Full-length human IgG4 (S241P L248E) / human kappa, expressed in NS0; also called IgG VH3/Vκ3; IgG-VH3/Vκ3; not shown: human kappa light chain constant region
In the case of B1, the “IC50 (read off the curve)” value in experiment [1] is about 5 µg/mL; in experiment [3] it was about 0.2 µg/mL. Besides, the Kd in [2] was 22700 pM; in [4], 4.9 pM; in experiment [9] it was 5.8 pM; in [12], 7.9 pM; in experiment [13], 7300 pM; in [16] it was 6.7 pM. The koff in [4] is 5.1e-06 s⁻¹; in [8], 4.6e-06 s⁻¹; in experiment [9], 5.8e-06 s⁻¹; in experiment [11], 1.1e-07 s⁻¹; in [12], 3.1e-07 s⁻¹; in [16] it was 6.4e-06 s⁻¹. For the same molecule, the kon in experiment [4] amounted to 1.1e+06 M⁻¹ s⁻¹; in [7], 16000 M⁻¹ s⁻¹; in [9], 1e+06 M⁻¹ s⁻¹; in experiment [10] it was 200000 M⁻¹ s⁻¹; in experiment [12] it was 39000 M⁻¹ s⁻¹; in experiment [16], 960000 M⁻¹ s⁻¹. The “amount of antibody required to inhibit 50% of human CH50 hemolysis” value in experiment [5] is about 60 ng. Moreover, in [6], the “amount of antibody required to inhibit approximately 50% to approximately 80% of rat CH50 hemolysis” value is about 60 ng. In addition, the “Relative IC50” value in [14] is 0.63 ratio to chimeric M1; in [15] it was 1.5 ratio to chimeric M1.

B2: chimeric M1 antibody (antibody, human IgG4)
heavy: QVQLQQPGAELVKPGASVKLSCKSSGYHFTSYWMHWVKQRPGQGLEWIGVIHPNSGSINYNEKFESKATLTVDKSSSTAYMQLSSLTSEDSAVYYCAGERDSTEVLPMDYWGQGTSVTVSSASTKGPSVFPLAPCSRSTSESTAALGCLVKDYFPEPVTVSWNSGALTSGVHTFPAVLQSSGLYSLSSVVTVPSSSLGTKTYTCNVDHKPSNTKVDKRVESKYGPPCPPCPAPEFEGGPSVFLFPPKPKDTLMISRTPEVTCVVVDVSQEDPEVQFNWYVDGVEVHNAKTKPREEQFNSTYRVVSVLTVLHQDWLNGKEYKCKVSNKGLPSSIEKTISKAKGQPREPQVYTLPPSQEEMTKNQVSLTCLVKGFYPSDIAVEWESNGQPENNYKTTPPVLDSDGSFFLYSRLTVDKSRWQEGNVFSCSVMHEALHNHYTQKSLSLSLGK
light: DVQITQSPSYLAASPGETITINCRASKSINKYLAWYQEKPGKTNKLLIYSGSTLQSGIPSRFSGSGSGTDFTLTISSLEPEDFAMYYCQQHNEYPLTFGAGTKLELK
notes: Murine M1 V regions with human IgG4 (S241P L248E) and human kappa constant regions, expressed in NS0; also called 3E2; not shown: human kappa light chain constant region
For B2, the “IC50 (read off the curve)” value in experiment [17] is about 0.3 µg/mL; in experiment [1], about 3 µg/mL; in experiment [18], about 0.3 µg/mL; in experiment [3], about 0.3 µg/mL; in [20], about 0.3 µg/mL. Moreover, the “Relative IC50” value in experiment [19] and in experiment [21] was 1 ratio to chimeric M1 throughout.
